The values below come from patent US20040043401A1 (SLOAN KETTERING INSTITUTE FOR CANCER RESEARCH, published 2004).

This test deals with human prostate-specific membrane antigen (PSMA) (human, UniProt Q04609 1-750). The test can be described thus: cell-based or functional assay.
Sequence of human prostate-specific membrane antigen (PSMA) (Q04609 whole entry): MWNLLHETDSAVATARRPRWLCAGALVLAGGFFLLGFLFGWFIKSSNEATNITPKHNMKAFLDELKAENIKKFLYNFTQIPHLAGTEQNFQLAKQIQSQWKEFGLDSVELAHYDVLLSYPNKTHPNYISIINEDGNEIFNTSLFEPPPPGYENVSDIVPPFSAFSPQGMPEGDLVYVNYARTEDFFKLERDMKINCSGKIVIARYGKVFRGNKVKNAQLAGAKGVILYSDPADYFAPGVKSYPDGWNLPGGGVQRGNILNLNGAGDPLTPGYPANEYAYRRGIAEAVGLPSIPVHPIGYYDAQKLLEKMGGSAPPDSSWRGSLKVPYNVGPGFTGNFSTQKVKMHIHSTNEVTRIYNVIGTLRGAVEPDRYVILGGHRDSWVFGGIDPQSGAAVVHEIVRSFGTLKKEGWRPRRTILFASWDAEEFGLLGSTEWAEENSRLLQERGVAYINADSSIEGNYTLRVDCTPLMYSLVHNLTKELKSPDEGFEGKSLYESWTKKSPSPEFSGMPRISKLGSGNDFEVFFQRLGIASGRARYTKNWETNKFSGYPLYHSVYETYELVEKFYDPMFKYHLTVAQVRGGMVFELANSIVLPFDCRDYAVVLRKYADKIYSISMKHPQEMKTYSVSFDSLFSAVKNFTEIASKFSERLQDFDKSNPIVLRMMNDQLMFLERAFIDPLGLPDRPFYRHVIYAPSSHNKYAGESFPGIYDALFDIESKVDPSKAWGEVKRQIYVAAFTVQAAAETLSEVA

B1: P28z fusion receptor (J591 scFv - human CD28 hinge, transmembrane and intracellular portions - intracellular domain of human TCR zeta) (receptor, not shown: a dimerising Fc or GST; small tags and cut ends)
chain: IEVMYPPPYLDNEKSNGTIIHVKGKHLCPSPLFPGPSKPFWVLVVVGGVLACYSLLVTVAFIIFWVRSKRSRLLHSDYMNMTPRRPGPTRKHYQPYAPPRDFAAYRSRVKFSRSADAPAYQQGQNQLYNELNLGRREEYDVLDKRRGRDPEMGGKPRRKNPQEGLYNELQKDKMAEAYSEIGMKGERRRGKGHDGLYQGLSTATKDTYDALHMQALPPR
With B1, the “expansion in total cell number after re-stimulation with PSMA, seven days” value worked out at 4 fold and the “expansion of transduced T cells on NIH3T3 cells expressing PSMA alone, seven days” value was 8.6 fold.
